# Measured values: the nanobody polyreactivity screen of Harvey et al. (2022)
# Assay: yeast display, Sf9 membrane polyspecificity reagent, FACS + sequencing; frameworks hold sequencing errors
# Outline: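 A synthetic nanobody library was expressed on Saccharomyces cerevisiae BJ5465 by galactose induction for 36–48 hours. The library was stained for 1 hour at 4 °C with 10% biotinylated, detergent-solubilized Sf9 membrane reagent and enriched with streptavidin microbeads before FACS. Low and high (top ~1%) gates were set on anti-HA fluorescence for expression and streptavidin fluorescence for reagent binding, and each polyreactivity label reflects the gate of origin.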
row,Sequence,polyreactivity (PSR sort gate)
1,QVHLVESGGGLDQAGGSLRLICAASGSIFDYYAMGWYRQAPGKERELVAAIDNPDSTNYADSVKGRFTLSRDNAKNTVYLQMNSLKPEDTAVYYCAASSRTVWYPGVGYYYWGQGTQVTVSS,low polyreactivity
2,QVHLVESGGGLDQAGGSLRLSCAASASIFELYAMGWYRQAPGKERELVAVISTGGSTYYADSVKGRFTISRDNAKNTVYLQMNSLKPEDTAVYYCAKGGYVPKLEYWGQGTQVTVSS,high polyreactivity
3,QVHLVESGGGLDQAGGSLRLSSAASGTTYRYAMGCYRQAPGKAMELVATISSRGGTTSYADSVKGRFTISRDNAKNTVYLQMNSLKPEDTAVYSCAAGQFPKYFSDDADMDYWGQGPQVTVSS,low polyreactivity
4,QVHLVESGGGLFQAGGSLRLSCAPSGSITGYYAMGWYRQAPGKERDLVASIRNTGARTYYADSVKGRFTISRDNAKKTVYIQKNSLKAEDTAVYYCAADVKRDRVRGGDDWGQGTQVTVSS,low polyreactivity
5,QVHLVESGGGLLQAGGSLRLSFAASGTFYYYAMGWNRQAPGKERELVATISWDSASTYYADSVKGRFTISRDNAKNTVYLQMNSLKPEDTGVYYCAAGGSSSWAFNYWGQGTQVTVSS,low polyreactivity
6,QVHLVESGGGLVKAGGSLRLSCAASGLTFYVYTMGWYRQAPGKERELVAVISSGDSTYYADSVKGRFTISRDNAKNTVYLQMNSLKPEDTAVYYCAAGTHYLIVRYGLYDYWGQGTQVYVSS,low polyreactivity
7,QVHLVESGGGLVKAGGSLRLSCAASGSIFTWYAMGWYRQEPGKERELVAAITWRGGSTYYADSVKGRFTISRDNAKNTVYLQMNSLKPEDTAVYYCAAAGRSGKSLLQYGYWGQGTQVTVSS,high polyreactivity
8,QVHLVESGGGLVKAGGSLRLSCAAYGRIFSYNDMGWYRQSPGKDRELVAAISSSGGRTYYADSVKGSFTISRDNAKNTVYLQMNSMKPEDTALYYCNVLGYSYWGQGTQVTVSS,high polyreactivity
9,QVHLVESGGGLVQAAGSLRLSCAASGRTFNPNAIGWYRQAPGKERELVAVINVGGRTNYADSVKGRFTISRDNAKNTVYLQMNSLKPEDSAVYYCAAISSRNFDYWGQGTQVTVSS,high polyreactivity
10,QVHLVESGGGLVQAGASLRLSCAASGSIFVGYAMGWYRQAPGKERELVASISSGDDTYADSVKGRFTISRDNAKNTVYLQMNSLKPEDTAVYYCAKDYISVDWAYDYWGQGTQVTVSS,low polyreactivity
11,QVHLVESGGGLVQAGCSLRLSCAASGFTFYDYAMGWYRQAPGKERELVAGISRGDSTYYADSVKGRFTISRDNAKNTVYLQKNSLKPEDTSVYYCAADARSYDALDYSDLLYDYWGHGTQVTVSS,low polyreactivity
12,QVHLVESGGGLVQAGDSLRLSCASSGIIFYDYAMGWYRPAPGKERELVAAITSSGGSTYYADSVKGRFTISRDNAKNTVYLQMNSLIPEDTAVYYCAAATRGSGRRYDYLGQGTQVTVSS,high polyreactivity
13,QVHLVESGGGLVQAGGCLRLSCAASGSIFSVHAMGWYRQAPVKERELVAAISGDGDSTYYADSVKGRFTISRDNAKNTVYLQMNSLKPEDTAVYYCAVEPNVYFSVFVLFPSDYWGQGSQVTVSS,low polyreactivity
14,QVHLVESGGGLVQAGGGLRLSSAASGFIFSPNAMGWYRQAPGKEREYVAAISYSGTSTSYADSVKGRFTISRDNAKNTVYLQMNSLKPEDTAVYYCAAGRSNSYSPRRRVTYGYNYWGQGTQVTVSS,high polyreactivity
15,QVHLVESGGGLVQAGGRLRLSCAASGYIFSVYAMGLYRQAPGKERELVAAISSGGSTYYADSLKGRLTISRDNAKYTVYLQMNSLKPEDTAVYYCAAESVYVYWYYVDYDYWGQGTQVTVSS,high polyreactivity
16,QVHLVESGGGLVQAGGSHRLSCAASGLNFPPNAMGWYRQAPAKESELVASITRSGGSTYYADSVKGRFTISRDNAKNTVYLQMNSLKRDDTAVYYCAAYLDTSRYGVLYDYWGQGTQVTVSS,low polyreactivity
17,QVHLVESGGGLVQAGGSIRLSCAASGFIFGSYAMGWYRPAPGKERELVAVISASGGGTYYADSVKGRFTISRDNAKYTVYLQMNSLKPEDTAVYYCAAKGVRGFAGYGYWGQGTQVTVSS,high polyreactivity
18,QVHLVESGGGLVQAGGSLPLSCAASGIIFGGYDMGWYRPAPGIERELVAAISWSGGSTYYADSVKGRFTISRDNAKNTVYLPMNSLKPEDTAVYYCAAAYYAPTRVYYYWGQGTQVTVSS,low polyreactivity
19,QVHLVESGGGLVQAGGSLRISCAASGLTFQRYAMGWYRQAPGKERELVASITGNGGSTYYADSVKGRFTISRDNAQNSVYLQMNSLKPEDTAVFYCNARRYVRTSQQPLYDYWGQGTQVTVSS,high polyreactivity
20,QVHLVESGGGLVQAGGSLRLICAASGRILYLYAMGWYRQAPGKERELVARISQRDGSTYYADSVKGRFTISRDNAKNTVYLQMNSLKPEDTAVYYCNADFYLGSYGYSYDYWGQGTQVTVSS,low polyreactivity

row,Sequence,polyreactivity (PSR sort gate)
1,QVHLVESGGGLVQAGGSLRLICAASGSIFRRYAMGWYRQAPGKERELVASISSRGTRTYYADSVTWRFTISRDNAKNTVYLQMNSLKPEDTAVYYCAASYYTPYDYLGQGTQVTVSS,high polyreactivity
2,QVHLVESGGGLVQAGGSLRLSCAASGDTFVKYAMGWYRQAPGKERELVAAISSGGRTYYADSVKGRFTISRDNAKNTVYLQMNSLKPEDTAVYFCNAVRPYRLASYDYWGQGTQVTVSS,high polyreactivity
3,QVHLVESGGGLVQAGGSLRLSCAASGFIFDFNTMGWYRQAPGKETEFVAAISGSGGRTYYADSVKGRFTISRDNAKNTVYLQMNSLKPEDTAVYYCAAYKRYYYGYDYWGQGTQVTVSS,high polyreactivity
4,QVHLVESGGGLVQAGGSLRLSCAASGFIFSVYAMGWYRQAPGKERELVAAINRSGSNTYYADSVKGRFTISRDNAKNTVYLQMNSLKPEDTAVYYCATLQGFWYYPPYIKTVQYGYWGQGTQVTVSS,high polyreactivity
5,QVHLVESGGGLVQAGGSLRLSCAASGFIFWENGMGWYRQAPGKERELVAAISSGGGRTYYADSVKGLFTISRDNAKNTVYLQMNSLKPEDTAFYYCNRARYYREFDYWGQGTQVTVSS,high polyreactivity
6,QVHLVESGGGLVQAGGSLRLSCAASGFTFDYNAMGWYRQAPGKEMELVAAISGSGGSTYYADSVKGRFTISRDNAKNTVYLQMNSLKPEDSSVYYCNAGRVTRRDTFDYWGQGTQVTVSS,high polyreactivity
7,QVHLVESGGGLVQAGGSLRLSCAASGFTFFYYAMGWYRPAPGKERELVAAINSGDNTNYADSVKGRFTISRDNAKNTVYLLMNSLIPEDTAVYYCAAQDYARGVVPGRRAMGYWGQGTQVSVSS,high polyreactivity
8,QVHLVESGGGLVQAGGSLRLSCAASGFTFGVYAMGWYRQAPGKERELVAAISRRGTSTYYADSVKGRFTISRDTAKYTVYLQMNSLKPEDTAVYYCNARRYQVTVDHWGQGTQVTVSS,high polyreactivity
9,QVHLVESGGGLVQAGGSLRLSCAASGFTFRGYAMGWYRQAPGTERELVAAVSGSGGRTHYADSVKGRFTISRDNAKNTVYLQMNSLKPEDTAVYYCNARGRASATGRRGRPDPFGYWGQGTQVTVSS,high polyreactivity
10,QVHLVESGGGLVQAGGSLRLSCAASGFTFRRNAMGWYRQAPGKERELVAAITRSGGVTYYADSVKGRFTISRDNAKNTVYLQMNSMKPEDTAVYYCATQARLYGGYDRYAGSYDYWGQGTQVTVSS,high polyreactivity
11,QVHLVESGGGLVQAGGSLRLSCAASGFTFSSNAMGWYRQAPGKERELVADISFNSTSTYYADSVKGRFTISRDNAKNTVYLQMNSLKPEDTAVYYCAADVPRVQSEPEYDYWGQGTQVTVSS,low polyreactivity
12,QVHLVESGGGLVQAGGSLRLSCAASGFTFSYYAMGWYRQAPGKERELVAVISDRGGITYYADSVKGRFTISRDNAKNTVYLQMISLKPEDTAVYYCAAQNPRYNYRYYYWGQGTQVTVSS,low polyreactivity
13,QVHLVESGGGLVQAGGSLRLSCAASGFTITYNAMGWYRQAPGKEREFVAAITNNGSTYYADSVKGRFTISRDNAKNSVYLQMKSLKPEDTAVYYCAVDRGYYDEYNYWGQGTHVTVSS,low polyreactivity
14,QVHLVESGGGLVQAGGSLRLSCAASGGTINRYAMGWSRQAPGKERELVAAITYSGGRTYYADSVKGRFTISRDNAKNTVYLQMNSLKPEDTAVYYCAARVGKIISDSWGQGTQVTVSS,high polyreactivity
15,QVHLVESGGGLVQAGGSLRLSCAASGIIFGRNVMGWYRQAPGKERELVAAISSSGGRTYYADSVKGRFTISRDNAKNTVYLQMNSLNPEVTAVYYCAADEVTKKNSFPRIMDYWGQGTQVTVSS,high polyreactivity
16,QVHLVESGGGLVQAGGSLRLSCAASGIIFHYYAMGWYRQAPGKERALVATMTSGGSTYYADSVKGRFTISRDNAKNTVYLQMNSLKPEDSAVYYCAATYGGSVFEYDYWGQGTQVTVSS,low polyreactivity
17,QVHLVESGGGLVQAGGSLRLSCAASGIIFYWNPMGWYRQAPGKERELVAAISWSGGSTYYADSVKGRFTISRDNAKNTVYLQMNSLKPEDTAVYYCNAVTTYYPQFRPGAIPGVGYGFWGQGTQVTVSS,low polyreactivity
18,QVHLVESGGGLVQAGGSLRLSCAASGILRLNAMGWYRQAPGKEREFVATISRSGGITYYADSVKGRFTISRDNAKNTVYLQMNSLKPEDTAVYYCAKGGYSLYGYWGQGTQVTVSS,high polyreactivity
19,QVHLVESGGGLVQAGGSLRLSCAASGITFAWYAMGWYRQAPGKERELVAAISDRGGSTYYADSVKGRFTMSRDNAKNTVDLQMNSLKPEETAVYYCAADYRYYWRSGASSRMDYWGQGTQVTVSS,high polyreactivity
20,QVHLVESGGGLVQAGGSLRLSCAASGITFNIYTLGWYRQAPGKEREFVATISSSGGGTYYADSVKGRFTISRDNSKNTVYFQMNSLKPEDTAVYYCARYGIGADGYDYWGQGTQVTVSS,low polyreactivity
